Assay results reported in patent US20230357446A1.

Biological target: CD22 on WSU-DLCL2 cells (WSU-DLCL2/CD22^WT; absent from the CRISPR-edited WSU-DLCL2/CD22^KO line) (human) (UniProt P20273)
Test: cell-based or functional assay

CD4+ T cell activation (MFI of CD25); ratio CD22^KO:CD22^WT 0:100; 5 pM R1979 +0.46 nM R5837: 13400 MFI | CD4+ T cell activation (MFI of CD25); ratio CD22^KO:CD22^WT 0:100; 5 pM R1979 +2.8 nM R5837: 14800 MFI | CD4+ T cell activation (MFI of CD25); ratio CD22^KO:CD22^WT 0:100; 5 pM R1979 +16.7 nM R5837: 17700 MFI | CD4+ T cell activation (MFI of CD25); ratio CD22^KO:CD22^WT 20:80; 5 pM R1979 +0.46 nM R5837: 11200 MFI | CD4+ T cell activation (MFI of CD25); ratio CD22^KO:CD22^WT 20:80; 5 pM R1979 +2.8 nM R5837: 14400 MFI | CD4+ T cell activation (MFI of CD25); ratio CD22^KO:CD22^WT 20:80; 5 pM R1979 +16.7 nM R5837: 15300 MFI | CD4+ T cell activation (MFI of CD25); ratio CD22^KO:CD22^WT 40:60; 5 pM R1979 +0.46 nM R5837: 11800 MFI | CD4+ T cell activation (MFI of CD25); ratio CD22^KO:CD22^WT 40:60; 5 pM R1979 +2.8 nM R5837: 13200 MFI | CD4+ T cell activation (MFI of CD25); ratio CD22^KO:CD22^WT 40:60; 5 pM R1979 +16.7 nM R5837: 13600 MFI | CD4+ T cell activation (MFI of CD25); ratio CD22^KO:CD22^WT 60:40; 5 pM R1979 +0.46 nM R5837: 8520 MFI | CD4+ T cell activation (MFI of CD25); ratio CD22^KO:CD22^WT 60:40; 5 pM R1979 +2.8 nM R5837: 10900 MFI | CD4+ T cell activation (MFI of CD25); ratio CD22^KO:CD22^WT 60:40; 5 pM R1979 +16.7 nM R5837: 12000 MFI | CD4+ T cell activation (MFI of CD25); ratio CD22^KO:CD22^WT 80:20; 5 pM R1979 +0.46 nM R5837: 7520 MFI | CD4+ T cell activation (MFI of CD25); ratio CD22^KO:CD22^WT 80:20; 5 pM R1979 +2.8 nM R5837: 8280 MFI | CD4+ T cell activation (MFI of CD25); ratio CD22^KO:CD22^WT 80:20; 5 pM R1979 +16.7 nM R5837: 9850 MFI | CD4+ T cell activation (MFI of CD25); ratio CD22^KO:CD22^WT 100:0; 5 pM R1979 +0.46 nM R5837: 4280 MFI | CD4+ T cell activation (MFI of CD25); ratio CD22^KO:CD22^WT 100:0; 5 pM R1979 +2.8 nM R5837: 4060 MFI | CD4+ T cell activation (MFI of CD25); ratio CD22^KO:CD22^WT 100:0; 5 pM R1979 +16.7 nM R5837: 3150 MFI | CD8+ T cell activation (MFI of CD25); ratio CD22^KO:CD22^WT 0:100; 5 pM R1979 +0.46 nM R5837: 7920 MFI | CD8+ T cell activation (MFI of CD25); ratio CD22^KO:CD22^WT 0:100; 5 pM R1979 +2.8 nM R5837: 9030 MFI | CD8+ T cell activation (MFI of CD25); ratio CD22^KO:CD22^WT 0:100; 5 pM R1979 +16.7 nM R5837: 9880 MFI | CD8+ T cell activation (MFI of CD25); ratio CD22^KO:CD22^WT 20:80; 5 pM R1979 +0.46 nM R5837: 6310 MFI | CD8+ T cell activation (MFI of CD25); ratio CD22^KO:CD22^WT 20:80; 5 pM R1979 +2.8 nM R5837: 8410 MFI | CD8+ T cell activation (MFI of CD25); ratio CD22^KO:CD22^WT 20:80; 5 pM R1979 +16.7 nM R5837: 8660 MFI | CD8+ T cell activation (MFI of CD25); ratio CD22^KO:CD22^WT 40:60; 5 pM R1979 +0.46 nM R5837: 6140 MFI | CD8+ T cell activation (MFI of CD25); ratio CD22^KO:CD22^WT 40:60; 5 pM R1979 +2.8 nM R5837: 7920 MFI | CD8+ T cell activation (MFI of CD25); ratio CD22^KO:CD22^WT 40:60; 5 pM R1979 +16.7 nM R5837: 7880 MFI | CD8+ T cell activation (MFI of CD25); ratio CD22^KO:CD22^WT 60:40; 5 pM R1979 +0.46 nM R5837: 4800 MFI | CD8+ T cell activation (MFI of CD25); ratio CD22^KO:CD22^WT 60:40; 5 pM R1979 +2.8 nM R5837: 6620 MFI | CD8+ T cell activation (MFI of CD25); ratio CD22^KO:CD22^WT 60:40; 5 pM R1979 +16.7 nM R5837: 6670 MFI | CD8+ T cell activation (MFI of CD25); ratio CD22^KO:CD22^WT 80:20; 5 pM R1979 +0.46 nM R5837: 4250 MFI | CD8+ T cell activation (MFI of CD25); ratio CD22^KO:CD22^WT 80:20; 5 pM R1979 +2.8 nM R5837: 4890 MFI | CD8+ T cell activation (MFI of CD25); ratio CD22^KO:CD22^WT 80:20; 5 pM R1979 +16.7 nM R5837: 4970 MFI | CD8+ T cell activation (MFI of CD25); ratio CD22^KO:CD22^WT 100:0; 5 pM R1979 +0.46 nM R5837: 3000 MFI | CD8+ T cell activation (MFI of CD25); ratio CD22^KO:CD22^WT 100:0; 5 pM R1979 +2.8 nM R5837: 2510 MFI | CD8+ T cell activation (MFI of CD25); ratio CD22^KO:CD22^WT 100:0; 5 pM R1979 +16.7 nM R5837: 2160 MFI
Substance: REGN5837 (bispecific antibody)
% CD22^KO Survival; ratio CD22^KO:CD22^WT 20:80; 5 pM R1979 +0.46 nM R5837: 29.9% | % CD22^KO Survival; ratio CD22^KO:CD22^WT 20:80; 5 pM R1979 +2.8 nM R5837: 25.2% | % CD22^KO Survival; ratio CD22^KO:CD22^WT 20:80; 5 pM R1979 +16.7 nM R5837: 20.9% | % CD22^KO Survival; ratio CD22^KO:CD22^WT 40:60; 5 pM R1979 +0.46 nM R5837: 31.9% | % CD22^KO Survival; ratio CD22^KO:CD22^WT 40:60; 5 pM R1979 +2.8 nM R5837: 24.1% | % CD22^KO Survival; ratio CD22^KO:CD22^WT 40:60; 5 pM R1979 +16.7 nM R5837: 19.9% | % CD22^KO Survival; ratio CD22^KO:CD22^WT 60:40; 5 pM R1979 +0.46 nM R5837: 33.9% | % CD22^KO Survival; ratio CD22^KO:CD22^WT 60:40; 5 pM R1979 +2.8 nM R5837: 28.2% | % CD22^KO Survival; ratio CD22^KO:CD22^WT 60:40; 5 pM R1979 +16.7 nM R5837: 19.1% | % CD22^KO Survival; ratio CD22^KO:CD22^WT 80:20; 5 pM R1979 +0.46 nM R5837: 37.2% | % CD22^KO Survival; ratio CD22^KO:CD22^WT 80:20; 5 pM R1979 +2.8 nM R5837: 28.8% | % CD22^KO Survival; ratio CD22^KO:CD22^WT 80:20; 5 pM R1979 +16.7 nM R5837: 26.9% | % CD22^KO Survival; ratio CD22^KO:CD22^WT 100:0; 5 pM R1979 +0.46 nM R5837: 60.1% | % CD22^KO Survival; ratio CD22^KO:CD22^WT 100:0; 5 pM R1979 +2.8 nM R5837: 56% | % CD22^KO Survival; ratio CD22^KO:CD22^WT 100:0; 5 pM R1979 +16.7 nM R5837: 45.4% | % CD22^WT Survival; ratio CD22^KO:CD22^WT 0:100; 5 pM R1979 +0.46 nM R5837: 28.5% | % CD22^WT Survival; ratio CD22^KO:CD22^WT 0:100; 5 pM R1979 +2.8 nM R5837: 22.4% | % CD22^WT Survival; ratio CD22^KO:CD22^WT 0:100; 5 pM R1979 +16.7 nM R5837: 12.6% | % CD22^WT Survival; ratio CD22^KO:CD22^WT 20:80; 5 pM R1979 +0.46 nM R5837: 19.3% | % CD22^WT Survival; ratio CD22^KO:CD22^WT 20:80; 5 pM R1979 +2.8 nM R5837: 16.4% | % CD22^WT Survival; ratio CD22^KO:CD22^WT 20:80; 5 pM R1979 +16.7 nM R5837: 11.2% | % CD22^WT Survival; ratio CD22^KO:CD22^WT 40:60; 5 pM R1979 +0.46 nM R5837: 20.1% | % CD22^WT Survival; ratio CD22^KO:CD22^WT 40:60; 5 pM R1979 +2.8 nM R5837: 12.8% | % CD22^WT Survival; ratio CD22^KO:CD22^WT 40:60; 5 pM R1979 +16.7 nM R5837: 9.45% | % CD22^WT Survival; ratio CD22^KO:CD22^WT 60:40; 5 pM R1979 +0.46 nM R5837: 19.1% | % CD22^WT Survival; ratio CD22^KO:CD22^WT 60:40; 5 pM R1979 +2.8 nM R5837: 12.4% | % CD22^WT Survival; ratio CD22^KO:CD22^WT 60:40; 5 pM R1979 +16.7 nM R5837: 8.6% | % CD22^WT Survival; ratio CD22^KO:CD22^WT 80:20; 5 pM R1979 +0.46 nM R5837: 20.6% | % CD22^WT Survival; ratio CD22^KO:CD22^WT 80:20; 5 pM R1979 +2.8 nM R5837: 13.1% | % CD22^WT Survival; ratio CD22^KO:CD22^WT 80:20; 5 pM R1979 +16.7 nM R5837: 7.95%
